The record followed here is the RNAGym collection of RNA variant scans (doi:10.1093/molbev/msab373).

B1: Azoarcus group I ribozyme (parent)
chain: GUGCCUUGCGCCGGGAAACCACGCAAGGGAUGGUGUCAAAUUCGGCGAAACCUAAGCGCCCGCCCGGGCGUAUGGCAACGCCGAGCCAAGCUUCGGCGCCUGCGCCGAUGAAGGUGUAGAGACUAGACGGCACCCACCUAAGGCAAACGCUAUGGUGAAGGCAUAGUCCAGGGAGUGGCGAAAGUCACACAAACCGG

Variants of B1 are the subject of this series. Kind of series: reverse-splicing fitness (ratio to wild type); higher = more active; in vitro selection; Mg2+ level not given. The procedure, abridged:
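An in vitro group I ribozyme library with randomized positions was T7-transcribed and gel-purified. In triplicate, 10 pmol RNA in EPPS pH 7.5 was reacted with 50 pmoles of a 30-nt RNA substrate for 1 h at 37 °C across several added MgCl2 levels (1–48 mM), then stopped with EDTA. Products were reverse transcribed from a substrate-complementary primer, PCR-amplified and sequenced (HiSeq 4000). Fitness is a variant's read proportion after selection over that before, normalised to wild type.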
For the variant C82A A120C A145G C150G U176A, the reverse-splicing fitness stood at 0.00881. With C82A A120C A145G C150G U176G the figure was 0.00716. With C82A A120C A145C C150G C169U the figure was 0.00982; with C82A A120C A145C C150G C169A, 0.00891; with C82A A120C A145C C150G C169G, 0.00784.

On to C82A A120C A145U C150G, for which the reverse-splicing fitness came to 0.0161. As for C82A A120C A145U C150A, the reverse-splicing fitness turned out to be 0.0195. With C82A A111U A145G C150G U176C the figure was 0.0188. In the case of C82A A111U A145G C150G U176G, the reverse-splicing fitness was 0.00688. Turning to C82A A111U A145G C150G U176A, the reverse-splicing fitness amounted to 0.00963.

For C82A A111U A145U C150A U176G, the reverse-splicing fitness is 0.00989. Next, C82A A111U A145U C150A U176C: 0.0251; C82A A111U A145U C150A U176A: 0.018. Take C82A A120C A145C C150U C169G U176C: the reverse-splicing fitness was 0.0186. With C82A A120C A145C C150U C169G U176G the figure was 0.00542; with C82A A120C A145C C150U C169G U176A, 0.0287; with C82A A120C A145U C150A C169U U176C, 0.0126. In the case of C82A A120C A145U C150A C169U U176G, the reverse-splicing fitness is 0.00487. With C82A A120C A145U C150A C169U U176A the figure was 0.0151.

On to C82A A120C A145G C150A U176A, for which the reverse-splicing fitness came out at 0.0137. Next, C82A A120C A145G C150A U176G: 0.00982; C82A A120C A145G C150A U176C: 0.03; C82A A111U A145G C150A C169U U176G: 0.00831. Next, C82A A111U A145U C169A U176G: 0.00655; C82A A111U A145U C169A U176C: 0.0114; C82A A111U A145U C169A U176A: 0.012. As to C82A A111U A145G C150U C169A U176C, the reverse-splicing fitness came out at 0.0162. Next, C82A A111U A145G C150U C169A U176A: 0.016. With C82A A111U A145G C150U C169A U176G the figure was 0.00694. Turning to C82A A120C A145C C150A C169U U176A, the reverse-splicing fitness is 0.0144. C82A A120C A145C C150A C169U U176G: the reverse-splicing fitness was determined as 0.00481. With C82A A120C A145C C150A C169U U176C the figure was 0.0111; with C82A A120C A145G C169U U176A, 0.0173.

For the variant C82A A120C A145G C169U U176C, the reverse-splicing fitness was 0.0162.

As for C82A A120C A145G C169U U176G, the reverse-splicing fitness is 0.00469. Next, C82A A111U C150U U176G: 0.0161; C82A A111U C150U U176A: 0.0473; C82A A111U C150U U176C: 0.0751. With C82A A120C A145C C150A U176G the figure was 0.00599; with C82A A120C A145C C150A U176A, 0.0107. As for C82A A120C A145C C150A U176C, the reverse-splicing fitness was determined as 0.0155. With C82A A120C A145G C150A C169G U176G the figure was 0.00638; with C82A A120C A145G C150A C169G U176C, 0.0333. With C82A A120C A145G C150A C169G U176A the figure was 0.0191.

As to C82A A111U A145U C150U C169U U176C, the reverse-splicing fitness was found to be 0.0143. Regarding C82A A111U A145U C150U C169U U176A, the reverse-splicing fitness stood at 0.0147. Next, C82A A111U A145U C150U C169U U176G: 0.00717; C82A A111U C169G U176C: 0.0258.

C82A A111U C169G U176G: the reverse-splicing fitness turned out to be 0.00658.

In the case of C82A A111U C169G U176A, the reverse-splicing fitness turned out to be 0.0162. As to C82A A111U A145G C169U U176A, the reverse-splicing fitness was determined as 0.0154. With C82A A111U A145G C169U U176C the figure was 0.0157; with C82A A111U A145G C169U U176G, 0.00628; with C82A A111U A145U C150A C169U, 0.0108.

Consider C82A A111U A145U C150A C169A, for which the reverse-splicing fitness is 0.0092. Next, C82A A111U A145U C150A C169G: 0.00786; C82A A120C A145U C150G C169G U176G: 0.00467. With C82A A120C A145U C150G C169G U176C the figure was 0.00545; with C82A A120C A145U C150G C169G U176A, 0.00819; with C82A A111U A145U C150G, 0.0256. Next, C82A A111U A145U C150U: 0.181; C82A A111U A145U C150A: 0.0253; C82A A120C A145C U176C: 0.0514. Turning to C82A A120C A145C U176A, the reverse-splicing fitness is 0.0359.

Regarding C82A A120C A145C U176G, the reverse-splicing fitness came out at 0.00935. With C82A A120C A145C C150A C169G the figure was 0.0078; with C82A A120C A145C C150A C169A, 0.00995; with C82A A120C A145C C150A C169U, 0.00877. With C82A A120C A145G C150U C169G the figure was 0.00896; with C82A A120C A145G C150U C169U, 0.019; with C82A A120C A145G C150U C169A, 0.0108.

With C82A A111U A145G C169G, the reverse-splicing fitness was found to be 0.0102.

For C82A A111U A145G C169U, the reverse-splicing fitness came out at 0.0129. Take C82A A111U A145G C169A: the reverse-splicing fitness was 0.0104.

Regarding C82A A120C A145C C150G U176A, the reverse-splicing fitness is 0.0063. With C82A A120C A145C C150G U176C the figure was 0.0119.

Consider C82A A120C A145C C150G U176G, for which the reverse-splicing fitness was determined as 0.00331. As to C82A A120C A145G C150A C169G, the reverse-splicing fitness came out at 0.00977.

Turning to C82A A120C A145G C150A C169A, the reverse-splicing fitness was determined as 0.0111. As to C82A A120C A145G C150A C169U, the reverse-splicing fitness worked out at 0.0123. On to C82A A111U A145U C150A C169A U176C, for which the reverse-splicing fitness came out at 0.0138. Next, C82A A111U A145U C150A C169A U176A: 0.0158; C82A A111U A145U C150A C169A U176G: 0.00765.
